Results published in the nanobody polyreactivity screen of Harvey et al. (2022).

Assay: yeast display, Sf9 membrane polyspecificity reagent, FACS + sequencing; frameworks hold sequencing errors
Summary of the method: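 A synthetic nanobody library was expressed on Saccharomyces cerevisiae BJ5465 by galactose induction for 36–48 hours. The library was stained for 1 hour at 4 °C with 10% biotinylated, detergent-solubilized Sf9 membrane reagent and enriched with streptavidin microbeads before FACS. Low and high (top ~1%) gates were set on anti-HA fluorescence for expression and streptavidin fluorescence for reagent binding, and each polyreactivity label reflects the gate of origin.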

| Sequence | polyreactivity (PSR sort gate) |
| --- | --- |
| QVQLVDSGGGLVQAGGSLRLSCAASGLIIWRNAMGWYRQAPGKERELVAAITYSGSRTYYADSVKGRFTISRDNAKNTVYLLMNSLKPEDTAVYYCNADYYWYPYEDDNWGQGTQVTVSS | low polyreactivity |
| QVQLVDSGGGLVQAGGSLRLSCAASGLIVFYAMGWYRQAPGKERELVAGISSGGNTNYADSVKGRFTISRDNAKNTFYLQMNSMKPQDTSVYYCAAVYLLSSYDFWGQGTQVTVSS | high polyreactivity |
| QVQLVDSGGGLVQAGGSLRLSCAASGLTCRKYTMGWYRQAPGKERELVAAISFRGGSTYYADSVKGRFTISRDNAKNTVYLQMNSLKPEDTAVYYCNARKRYSTDPGDYWGQGTQVTVSS | high polyreactivity |
| QVQLVDSGGGLVQAGGSLRLSCAASGLTITVYVMGWYRQAPGKERELVAAIDWSGGSTYYADSVKGRFTISRDNAKNTVYLQMNSLKPEDTAVYYCASETTDYAYYGFTYDYWGQGTQVTVSS | low polyreactivity |
| QVQLVDSGGGLVQAGGSLRLSCAASGRIFFANAMGWYRQAPGKERELVAAISWRGGSTYYADSVKGRFTISRDNAKNTVYLQKNSLKPEDTAVYYCAATSRGTDYWGQGTQVTLSS | high polyreactivity |
| QVQLVDSGGGLVQAGGSLRLSCAASGRIFIVNPMGRYRQAPGKEREFVAAITSRGGITYYADSVKGRFTISRDNAKNTVYLQMNTLKPEDTAVYYFAAGYISWGSGNWGVTPYDYWGQGTQVTVSS | high polyreactivity |
| QVQLVDSGGGLVQAGGSLRLSCAASGRIFPWYAMGWYRQAPGKEMELVAAINWRAGLTYYADSVKGRFTISRDYAKNTVYLQMNSLKPEDTAVYYCNARSGRGQAYGYWGQGTQVSVSS | high polyreactivity |
| QVQLVDSGGGLVQAGGSLRLSCAASGRIFRDNCMVCYRQAPGKERELVAAIRRSGGSTYYADSVKGRFTISRDNAKNSVYLQMNSLIPEDTAVYYCATPPYPGREYWGQGSQVTVSS | high polyreactivity |
| QVQLVDSGGGLVQAGGSLRLSCAASGRIFYPYAMGWYREATGKERELVAAMTRRTASTYYADSVKGRFTISRDNAKNTVYLQMNSLKPQDTAVYYCAAVSYLKRPYYAGYYYWGQGTQVTVSS | high polyreactivity |
| QVQLVDSGGGLVQAGGSLRLSCAASGRNFLWNAMGWDRQAPGKERELVAGISWRGSSTYYAVSVKGRFTISRDNAKNTVYLQMNSLKPEDTAVYYCAAQGRPYRGQRTGAYGYWGQGTQVTVSS | high polyreactivity |
| QVQLVDSGGGLVQAGGSLRLSCAASGRTFGYYAMGWYRQAPGKERELVAAISGSGGSTYYADSVKGRFTISRDNAKNTVYLQMNSLIPEDTAVYYCIVYPPYAMDYWGQGTQVTVSS | high polyreactivity |
| QVQLVDSGGGLVQAGGSLRLSCAASGRTFTQNAKGWYRPAPGKERELVAAIRRGGSTNYADSVKWRFTISRDNAKNTVYLQMKSLKPEDTAVYYCATECYYGFSYRYDFWGLGTQVTVSS | high polyreactivity |
| QVQLVDSGGGLVQAGGSLRLSCAASGRTFTRNAMGWYRPATRQERELLAAISFTGGRTYYADSVKGRFTISRDNAKNTVYLQMNSLNPEDTAVYYCNTTSRRSQVGYSTRYDYWGQGTQVTVSS | high polyreactivity |
| QVQLVDSGGGLVQAGGSLRLSCAASGRTFTYYAMGWYRQAPGKERELVASISTTGRTYYADSVKGRFTITRDNAKNTVYLQMNSLKREDTAVYYCNASRVRRWNDYYKKFDYWGQGTQVTVSS | high polyreactivity |
| QVQLVDSGGGLVQAGGSLRLSCAASGRTFWQYAMGWYRQAPGKERELVAAISRSGGSTYYADSVKGRFTISRDNAQNTVSLQMNSLKPEDTAVYYCAAYYLGYNYDYWGQGTQVTVSS | high polyreactivity |
| QVQLVDSGGGLVQAGGSLRLSCAASGRTIHGYAMGWYRQAPGKERELVAAINWRGGSTYYADSVKGRFTISRDNAKNTVYLQMNSLKPEDTAVYYCNKRQYSARVSRSYDYWGQGTQVTVSS | high polyreactivity |
| QVQLVDSGGGLVQAGGSLRLSCAASGRTLYLYAMGWYRQAPGKKRELVAGISWSGTSTYYADSVKGRFTISRDNSKNTVYLQMNSLKPEDTAFYYCAADRLYVRYGYWGQGTQVTVSS | low polyreactivity |
| QVQLVDSGGGLVQAGGSLRLSCAASGSIFFIYAMGWYRQATGKERELVATITSGGSTYYADSVKGRFTISRDNAKNTVYLQMNSLKPEDTAVYYCAKYFVYVGYGRYDYWGQCTQVTVSS | low polyreactivity |
| QVQLVDSGGGLVQAGGSLRLSCAASGSIFKYYAMGWSRQAPGKERELVAAISWSGDSTYYADSVKGRFTISRDNAKNTVYLQMNSLKPEDTAVYYCAAVYPYQVPDYDYWGQGSQVTVSS | low polyreactivity |
| QVQLVDSGGGLVQAGGSLRLSCAASGSIFLGYAMGWYRQAPGKVREFVAAITWSGGSTYYADSVKGRFTISRDIAKNTVYLQMNSLKQEDTAVYYCAVEIWIPTWYGLSGEYDYWGQGTQVTVSS | low polyreactivity |
| QVQLVDSGGGLVQAGGSLRLSCAASGSIFNRYVMGWYRQAPGKERELVAAISRRGGNTYYADSVKGRFTISRDNAKNTVYLQMNSLKPEDTAVYYCAAAYRSYKQFYSYGYEYWGQGTQVTVSS | high polyreactivity |
| QVQLVDSGGGLVQAGGSLRLSCAASGSIFVPYAMGWYRQAPRKERELVAAISWSGGSTNYADSVKGRFTISRDNAKNTVYLQMNSLKPEDTAVYYCNARWSSWYIHSHYYYWGQGTQVTVSS | high polyreactivity |
| QVQLVDSGGGLVQAGGSLRLSCAASGSILGQNAMGGNRQAPGKERELVAAITRGGSSTYYADSVKGRFTISRDNAKNTVYLQMNSLKPEDTAVYYCAAYSSIGYRQISGYYWGEGTQVTVSS | low polyreactivity |
| QVQLVDSGGGLVQAGGSLRLSCAASGSIYNIYAMGWYRQAPGKERELVATITGIADSTYYADSVKGRFTISRDNAKNTVYLQMNSLKPEDTAVYYCAADKYVAEYDYWGQGTQVTVSS | low polyreactivity |
| QVQLVDSGGGLVQAGGSLRLSCAASGSTFDRNGMGWYRQAPGKERELVAAITRGGSTYYADSVKGRFTISRDNAKNTVYLQMNSLKPEDTAVYYCAKRYRGGYYYPYNYWGQGTQVTVSS | high polyreactivity |
| QVQLVDSGGGLVQAGGSLRLSCAASGSTFKINAMGWYRQAPGKERELVAAISSRGGPTYYADSVKGRFTISRDNAKNTVYLQMNRLKPEDTAVYYSAKRRGGSRPYYYWGQGTQVTVSS | high polyreactivity |
| QVQLVDSGGGLVQAGGSLRLSCAASGSTFKIYAMGWYRQAPGKERELVARITSGGSTNYADSVKGRFTISRDNAKNTVYLQMNSLKPEDTAVYYCAARRWSYSTRGQRSSNLDYWGHGTQVTVSS | high polyreactivity |
| QVQLVDSGGGLVQAGGSLRLSCAASGSTFLFNAMGWYRQAPGNVREVVAGISSSGGSTHYADSVKGRFTISRDNAKNTVYLQMNSLKPEDTAVYYCNAQQYLPSEGDYWGQGTQVTVSS | low polyreactivity |
| QVQLVDSGGGLVQAGGSLRLSCAASGSTFRGNAMGWSRQAPGKERELVAAISASGGRTYYADSVKGRFTISRDNAKNTVYLQMNSLKPEETAVYYCAVRDQTDKVPFYYWGQGTQVSVSS | high polyreactivity |
| QVQLVDSGGGLVQAGGSLRLSCAASGSTFSTYPMGWYRQAPGKERELVAAISRSGGTTYYADSVKGRFTISRDNAKNTVYLQMNSLKQEETAVYYCNAVTRYTQIMDYWGQGTQVTVSS | high polyreactivity |
